# B1: Prospero homeobox protein 1 (Homo sapiens), Q92786 (parent)
# chain: MPDHDSTALLSRQTKRRRVDIGVKRTVGTASAFFAKARATFFSAMNPQGSEQDVEYSVVQHADGEKSNVLRKLLKRANSYEDAMMPFPGATIISQLLKNNMNKNGGTEPSFQASGLSSTGSEVHQEDICSNSSRDSPPECLSPFGRPTMSQFDMDRLCDEHLRAKRARVENIIRGMSHSPSVALRGNENEREMAPQSVSPRESYRENKRKQKLPQQQQQSFQQLVSARKEQKREERRQLKQQLEDMQKQLRQLQEKFYQIYDSTDSENDEDGNLSEDSMRSEILDARAQDSVGRSDNEMCELDPGQFIDRARALIREQEMAENKPKREGNNKERDHGPNSLQPEGKHLAETLKQELNTAMSQVVDTVVKVFSAKPSRQVPQVFPPLQIPQARFAVNGENHNFHTANQRLQCFGDVIIPNPLDTFGNVQMASSTDQTEALPLVVRKNSSDQSASGPAAGGHHQPLHQSPLSATTGFTTSTFRHPFPLPLMAYPFQSPLGAPSGSFSGKDRASPESLDLTRDTTSLRTKMSSHHLSHHPCSPAHPPSTAEGLSLSLIKSECGDLQDMSEISPYSGSAMQEGLSPNHLKKAKLMFFYTRYPSSNMLKTYFSDVKFNRCITSQLIKWFSNFREFYYIQMEKYARQAINDGVTSTEELSITRDCELYRALNMHYNKANDFEVPERFLEVAQITLREFFNAIIAGKDVDPSWKKAIYKVICKLDSEVPEIFKSPNCLQELLHE
# B2: Nuclear receptor subfamily 5 group A member 2 (Homo sapiens), O00482-2 (parent)
# chain: MSSNSDTGDLQESLKHGLTPIVSQFKMVNYSYDEDLEELCPVCGDKVSGYHYGLLTCESCKGFFKRTVQNNKRYTCIENQNCQIDKTQRKRCPYCRFQKCLSVGMKLEAVRADRMRGGRNKFGPMYKRDRALKQQKKALIRANGLKLEAMSQVIQAMPSDLTISSAIQNIHSASKGLPLNHAALPPTDYDRSPFVTSPISMTMPPHGSLQGYQTYGHFPSRAIKSEYPDPYTSSPESIMGYSYMDSYQTSSPASIPHLILELLKCEPDEPQVQAKIMAYLQQEQANRSKHEKLSTFGLMCKMADQTLFSIVEWARSSIFFRELKVDDQMKLLQNCWSELLILDHIYRQVVHGKEGSIFLVTGQQVDYSIIASQAGATLNNLMSHAQELVAKLRSLQFDQREFVCLKFLVLFSLDVKNLENFQLVEGVQEQVNAALLDYTMCNYPQQTEKFGQLLLRLPEIRAISMQAEEYLYYKHLNGDVPYNNLLIEMLHAKRA
# Variants of: B1
# Settings: with NR5A2, O00482-2
row,Variant,effect of a mutation on the interaction
1,L70A;L73A,disrupting interaction

# Variants of: B2
# Settings: with prox1_human PROX1, Q92786
row,Variant,effect of a mutation on the interaction
1,Q273A;Q281A;Q282A,disrupting interaction
2,L453A;L454A,disrupting interaction

# Next, values leading:
row,effect of a mutation on the interaction,Variant
1,decreasing interaction,D326A;D327A;M329A
2,decreasing interaction,K301A;Q305A;F308A

# Reference: IntAct's records for PubMed 15205472
